Ends that are not written are not given here.
Legend:
[1] = Stability of peptide solution by HPLC assay; format: physicochemical
Description: Stability experiment was carried out by HPLC assay and a custom synthesized thermolabile peptide with the following sequence was used as the model compound: […] The peptide was added to selected media and sonicated for 10 minutes. The sample solutions were filtered through passed through 0.22-μm pore-size filter to remove dust particles before the HPLC assay. A Simadzu 10avp chromatography system with a Kinetex C18 (2.6 μm, 100×4.6 mm i.d.) column (Phenomenex, Torrance, Calif.) were used. The solutions were kept at 25° C. in the Autosampler during the assay and the mobile phase consisted of 0.1% of trifluoroacetic acid and acetonitrile mixture (v/v, 80/20) with a flow rate of 1.0 mL/min. The peptide peak was monitored at 210 nm and quantitated using external standard sets of the peptide.
The plots were the % recovery vs. time.

[2] = Physical state of Propofol formulations with PEG-carbohydrate-lipid (solution, suspension or emulsion); format: physicochemical
Description: A propofol solution suitable for intravenous delivery is prepared as follows. 5% (w/v) of OAPDL-PEG in Saline was added to a vessel equipped with a mixer propeller and 2% (w/v) of Propofol was added with constant mixing at ambient room temperature. Mixing was continued until the drug was visually dispersed. Equal volume of Saline was added to the vessel with adequate mixing. Mixing continued for another 30 minutes or until a homogenous solution was achieved. A sample formulation is described in Table 15.
In Example 16, less concentrated or less purified PEG-sugar-lipid will create a suspension instead of an aqueous solution. For instance, the final concentration of the PEG-carbohydrate-lipid is less than 1.5% (w/v), it will form a suspension. Similarly when the oligomer purity is 80% or less, regardless the concentration of the PEG-carbohydrate-lipid, an emulsified solution will be observed instead of a transparent solution.
Propofol as the active agent was formulated with various polymer-lipid-carbohydrate conjugates described in the present invention. At a lower of the polymer-lipid-carbohydrate conjugate concentration, i.e., OAPDL-11 (<1.5%), the formulation is a microemulsion and at a higher OAPDL-11 concentration (≧2.2%), it is a true solution.
A solution is defined as a homogenous mixture of substances with variable composition. […]

[3] = Body weight change as evidence of renal toxicity of cisplatin, intravenous dosing; format: in vivo, mice (B6D2F1); settings: animal experiments, mice
Description: Groups of four each of mixed gender mice (B6D2F1), […] and weights of 22 to 30 grams) were studied in duplicate. Each mouse was administrated cisplatin intravenously at a dose of 10 mg/kg (Table 16) and Intraperitoneally at a dose of 15 mg/kg (Table 17). The changes in body weights observed can be used as a direct evident in the renal toxicity effects.

**Q.** What does the source list for “FPKLSHGCNKHSRKHPYMTF [peptide, custom synthesized thermolabile peptide used as the model compound]”?
**A.** peptide degradation ([1]; in a 50 mM of phosphate buffer, in 24 hours): degraded significantly; peptide still remaining ([1]; in a 2% of PEG-carbohydrate-lipid, after 24 hours): more than 97%

**Q.** Which results are given for “oleoyi-N-(3-aminopropyl)propane-1,3-diamine-Undecaethylene glycol methyl ether Lactobionate [OAPDL-11]”?
**A.** physical state of Propofol formulation ([2]; higher OAPDL-11 concentration (≧2.2%)): true solution; physical state of Propofol formulation ([2]; lower OAPDL-11 concentration (<1.5%)): microemulsion; intravenous hydration effect for reducing renal toxicity of cisplatin [3]: better than free sugars

— patent US20120202890A1, “POLYMER-CARBOHYDRATE-LIPID CONJUGATES” (priority 2011, published 2012)
